“Also recorded” adds a separate entry of the source. Square brackets hold non-standard residues; d marks the D form. Ends that are not written are not given here. Peptide text beside a SMILES is read from it. Hyp = O=C(O)[C@@H]1C[C@@H](O)CN1
How the values were obtained:
[1] = target: T1, ecdTDR (extracellular domain of TDR, residues 30–642), wild type (Arabidopsis thaliana, UniProt Q9FII5); experiment: ITC of synthetic TDIF/CLE peptides with wild-type ecdTDR; conditions: for Kd (dissociation constant) / Binding to TDR in words (relative to wild type peptide): ITC, 25°C, pH 5.5; for Kd (dissociation constant): 10 mM sodium citrate, 100 mM NaCl, 0.5–1 mM peptide titrated into 10–40 μM ecdTDR, one set of binding sites, Kd = 1/Ka; for Binding to TDR in words (relative to wild type peptide): wild-type ecdTDR
T1 sequence (Q9FII5 30-642): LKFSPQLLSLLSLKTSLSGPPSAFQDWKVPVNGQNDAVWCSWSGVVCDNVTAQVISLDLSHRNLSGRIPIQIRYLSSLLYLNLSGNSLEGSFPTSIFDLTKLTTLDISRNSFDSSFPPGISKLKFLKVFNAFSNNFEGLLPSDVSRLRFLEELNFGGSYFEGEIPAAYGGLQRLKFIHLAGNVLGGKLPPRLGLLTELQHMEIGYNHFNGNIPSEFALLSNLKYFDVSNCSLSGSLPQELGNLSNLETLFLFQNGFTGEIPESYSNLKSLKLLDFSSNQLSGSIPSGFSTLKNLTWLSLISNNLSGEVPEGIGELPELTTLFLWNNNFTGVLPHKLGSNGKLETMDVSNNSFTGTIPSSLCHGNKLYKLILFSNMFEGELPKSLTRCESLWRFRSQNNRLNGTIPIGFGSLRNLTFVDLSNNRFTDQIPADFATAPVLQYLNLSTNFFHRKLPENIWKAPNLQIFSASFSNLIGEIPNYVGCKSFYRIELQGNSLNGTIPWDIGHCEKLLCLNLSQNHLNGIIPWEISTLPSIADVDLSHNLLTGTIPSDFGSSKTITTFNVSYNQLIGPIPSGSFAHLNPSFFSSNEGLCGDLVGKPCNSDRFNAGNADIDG
Source text: To elucidate the molecular basis of TDR-TDIF interaction, we expressed the extracellular domain of TDR (residues 30–642) from Arabidopsis thaliana using Bac-to-Bac baculovirus-mediated insect cell expression system (Invitrogen). DNA fragment encoding the A. thaliana TDR gene (residues 30–642) were amplified by polymerase chain reaction (PCR) from an A. thaliana Expressed Sequence Tag (EST) clone as template. The amplified DNA fragment was then cloned into a modified pFastBac1 vector with the secretion signal sequence of baculovirus gp67 glycoprotein fused to its 5’ end and an engineered 6-histidine tag at the carboxyl terminus of the TDR protein. The construct plasmid was used to transform DH10Bac (Invitrogen) competent cells to generated recombinant bacmid DNA. Then the bacmid DNA was used to transfect sf9 insect cells to generate recombinant virus which was then amplified three times to passage 3. We used 20 ml passage 3 virus to infect each liter of High Five cells with a cell density of 1.5 x 10^6 in SF900 II SFM medium (Invitrogen). The recombinant protein was expressed in High Five cells at 27°C. […] The TDR mutants were generated using a PCR-based site-directed mutagenesis kit (Invitrogen), and the mutant TDR proteins were expressed and purified as the same procedure of the wild-type TDR (30–642) protein.
ITC experiments were performed on a MicroCal Auto-iTC200 instrument. […] Experiments were carried out at 25°C in a buffer containing 10 mM sodium citrate and 100 mM NaCl at pH 5.5. The data was analyzed using ORIGIN software. The association constant (Ka), enthalpy change (ΔH), and the stoichiometry (N) were calculated by fitting the thermograms to one set of binding sites. The association constant (Ka) was calculated by fitting the thermograms to one binding site.

[2] = tested on: tracheary element differentiation; conditions: reported in vivo study; cited from earlier work
Source text: There are two major anchoring sites on the TDIF peptide that are separated by Hyp4-S5-G6-Hyp7 (Fig 2). […] The side chain of H1 dips into a binding pocket of TDR formed by residues S162, G186, S187, Y188 and G210. In addition, hydrogen bonding interactions create major interactiv ... || Three TDIF residues N8, I10 and N12 form a C-terminal anchoring site (Fig 2C). Alanine substitutions of these residues N8A, I10A and N12A radically weaken their binding with TDR receptor. δ-NH2 group of N8 forms hydrogen bonds with the hydroxyl group of S305; side chain of I10 forms hydrophobic interaction with W353; δ-NH2 group of N12 forms hydrogen bonds with the hydroxyl group of S377 and carbonyl group of N12 forms a hydrogen bond with the side chain of R421.

[3] = target: ecdTDR S305A/W353A/R421A/R423A (Arabidopsis thaliana, UniProt Q9FII5, R421A/R423A/S305A/W353A); conditions: ITC, wild type TDIF, 25°C, pH 5.5
Source text: (§1) To elucidate the molecular basis of TDR-TDIF interaction, we expressed the extracellular domain of TDR (residues 30–642) from Arabidopsis thaliana using Bac-to-Bac baculovirus-mediated insect cell expression system (Invitrogen). DNA fragment encoding the A. thaliana TDR gene (residues 30–642) were amplified by polymerase chain reaction (PCR) from an A. thaliana Expressed Sequence Tag (EST) clone as template. The amplified DNA fragment was then cloned into a modified pFastBac1 vector with the secretion signal sequence of baculovirus gp67 glycoprotein fused to its 5’ end and an engineered 6-histidine tag at the carboxyl terminus of the TDR protein. The construct plasmid was used to transform DH10Bac (Invitrogen) competent cells to generated recombinant bacmid DNA. Then the bacmid DNA was used to transfect sf9 insect cells to generate recombinant virus which was then amplified three times to passage 3. […]
(§2) ITC experiments were performed on a MicroCal Auto-iTC200 instrument. […] The data was analyzed using ORIGIN software. The association constant (Ka), enthalpy change (ΔH), and the stoichiometry (N) were calculated by fitting the thermograms to one set of binding sites. The association constant (Ka) was calculated by fitting the thermograms to one binding site.

[4] = target: ecdTDR Y234A/F279A/F281A/S305A/W353A/ R421A/R423A (Arabidopsis thaliana, UniProt Q9FII5, F279A/F281A/R421A/R423A/S305A/W353A/Y234A); conditions: ITC, wild type TDIF, 25°C, pH 5.5
Source text: as §1, §2

[5] = target: T2, extracellular domain of A. thaliana TDR (residues 30-642) (Arabidopsis thaliana, UniProt Q9FII5 30-642, N-glycosylated at N111, N356, N378, N471 and N525 (one GlcNAc visible on each in the structures)); experiment: ITC
T2 chain: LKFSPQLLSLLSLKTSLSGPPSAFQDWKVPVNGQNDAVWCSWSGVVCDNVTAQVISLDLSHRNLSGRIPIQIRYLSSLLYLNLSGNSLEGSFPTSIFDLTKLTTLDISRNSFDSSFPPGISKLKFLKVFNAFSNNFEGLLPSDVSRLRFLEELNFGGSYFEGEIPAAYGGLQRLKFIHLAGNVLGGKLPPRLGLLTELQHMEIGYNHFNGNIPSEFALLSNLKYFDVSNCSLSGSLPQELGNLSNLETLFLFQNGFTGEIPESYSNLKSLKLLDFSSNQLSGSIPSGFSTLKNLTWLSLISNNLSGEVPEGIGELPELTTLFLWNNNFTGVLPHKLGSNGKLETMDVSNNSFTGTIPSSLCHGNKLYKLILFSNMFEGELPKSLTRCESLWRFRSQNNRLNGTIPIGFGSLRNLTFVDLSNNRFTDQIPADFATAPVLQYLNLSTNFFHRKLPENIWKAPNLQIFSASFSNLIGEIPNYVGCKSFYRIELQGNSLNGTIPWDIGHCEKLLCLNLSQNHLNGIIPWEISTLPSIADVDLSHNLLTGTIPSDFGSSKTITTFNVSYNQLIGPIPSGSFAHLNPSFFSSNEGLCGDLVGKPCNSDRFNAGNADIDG

[6] = target: T3, extracellular domain of A. thaliana TDR (residues 30-642) (Arabidopsis thaliana, UniProt Q9FII5 30-642, N-glycosylated at N111, N356, N378, N471 and N525 (one GlcNAc visible on each in the structures)); experiment: ITC; 0.5–1 mM peptide titrated into 10–40 μM ecdTDR; 25°C; 10 mM sodium citrate, 100 mM NaCl, pH 5.5; fitted to one set of binding sites; MicroCal Auto-iTC200; conditions: both partners purified
T3 construct: TDR/PXY (TDIF RECEPTOR / PHLOEM INTERCALATED WITH XYLEM) of A. thaliana, extracellular domain, residues 30-642; the structure models hold residues 40-625; also called ecdTDR; TDR-ECD; source: High Five insect cells (baculovirus), secreted, purified (Ni-NTA, size-exclusion chromatography)
T3 sequence (looked up): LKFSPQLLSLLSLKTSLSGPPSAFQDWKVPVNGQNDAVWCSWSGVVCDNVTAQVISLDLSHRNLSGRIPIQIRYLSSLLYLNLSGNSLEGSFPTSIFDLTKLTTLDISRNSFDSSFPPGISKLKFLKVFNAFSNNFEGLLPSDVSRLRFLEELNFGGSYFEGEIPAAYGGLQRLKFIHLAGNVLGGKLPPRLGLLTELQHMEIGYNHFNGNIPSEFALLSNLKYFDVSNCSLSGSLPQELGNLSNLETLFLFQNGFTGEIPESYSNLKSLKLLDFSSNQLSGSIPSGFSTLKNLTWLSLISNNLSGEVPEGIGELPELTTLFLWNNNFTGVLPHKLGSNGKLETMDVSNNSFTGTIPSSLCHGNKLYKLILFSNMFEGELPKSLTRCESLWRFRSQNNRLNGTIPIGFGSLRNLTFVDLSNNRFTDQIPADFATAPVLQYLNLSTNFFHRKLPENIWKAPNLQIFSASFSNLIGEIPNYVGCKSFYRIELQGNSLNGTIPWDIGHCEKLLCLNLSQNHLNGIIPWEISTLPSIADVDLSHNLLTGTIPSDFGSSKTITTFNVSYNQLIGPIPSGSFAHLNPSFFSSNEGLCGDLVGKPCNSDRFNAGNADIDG

[7] = target: T4, extracellular domain of A. thaliana TDR (residues 30-642), Q9FII5; experiment: ITC
T4 chain: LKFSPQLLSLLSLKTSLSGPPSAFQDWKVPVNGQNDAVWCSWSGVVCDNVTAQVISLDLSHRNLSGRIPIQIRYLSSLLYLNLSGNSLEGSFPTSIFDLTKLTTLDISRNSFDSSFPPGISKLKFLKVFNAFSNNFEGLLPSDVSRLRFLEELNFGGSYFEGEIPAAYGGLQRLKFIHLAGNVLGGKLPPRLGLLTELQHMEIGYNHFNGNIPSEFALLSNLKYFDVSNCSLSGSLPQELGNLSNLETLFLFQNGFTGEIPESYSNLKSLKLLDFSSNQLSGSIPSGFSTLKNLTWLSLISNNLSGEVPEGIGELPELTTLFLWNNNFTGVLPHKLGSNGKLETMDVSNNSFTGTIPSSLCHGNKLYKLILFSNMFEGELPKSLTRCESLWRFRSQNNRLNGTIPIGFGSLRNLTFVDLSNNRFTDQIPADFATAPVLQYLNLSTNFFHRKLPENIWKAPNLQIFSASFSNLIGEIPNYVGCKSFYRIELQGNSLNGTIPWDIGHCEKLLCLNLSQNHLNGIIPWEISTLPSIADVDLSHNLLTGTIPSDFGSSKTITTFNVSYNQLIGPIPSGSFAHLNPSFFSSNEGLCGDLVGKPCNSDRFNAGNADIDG

Sequence of ecdTDR Y234A/F279A/F281A/S305A/W353A/ R421A/R423A (Q9FII5 30-642 Y234A/F279A/F281A/S305A/W353A/R421A/R423A): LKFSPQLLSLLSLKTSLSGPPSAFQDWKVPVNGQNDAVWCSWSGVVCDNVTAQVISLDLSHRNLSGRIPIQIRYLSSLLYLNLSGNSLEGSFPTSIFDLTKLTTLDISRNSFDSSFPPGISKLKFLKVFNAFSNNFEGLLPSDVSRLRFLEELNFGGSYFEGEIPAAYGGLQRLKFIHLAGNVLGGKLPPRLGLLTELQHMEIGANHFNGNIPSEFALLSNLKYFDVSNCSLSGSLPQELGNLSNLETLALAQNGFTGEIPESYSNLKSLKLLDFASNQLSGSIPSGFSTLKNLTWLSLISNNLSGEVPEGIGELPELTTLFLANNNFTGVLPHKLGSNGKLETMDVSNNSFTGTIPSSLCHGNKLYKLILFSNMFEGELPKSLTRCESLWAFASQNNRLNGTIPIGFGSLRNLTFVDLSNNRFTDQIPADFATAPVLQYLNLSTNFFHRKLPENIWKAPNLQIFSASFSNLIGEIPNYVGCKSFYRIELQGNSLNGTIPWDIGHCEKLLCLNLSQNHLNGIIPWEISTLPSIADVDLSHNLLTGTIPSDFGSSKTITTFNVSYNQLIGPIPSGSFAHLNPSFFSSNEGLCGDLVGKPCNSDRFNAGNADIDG
Sequence of ecdTDR S305A/W353A/R421A/R423A (Q9FII5 30-642 S305A/W353A/R421A/R423A): as the sequence (Q9FII5 30-642 Y234A/F279A/F281A/S305A/W353A/R421A/R423A) above, with A205Y, A250F, A252F counted along it

## TDIF-H1A/E2A/V3A/N12A: TDIF mutant peptide (AAAPSGPNPISA; not fully specified (residues 4, 7))
[1]
  Kd (dissociation constant): No binding
  Binding to TDR in words (relative to wild type peptide): no binding

## CLE46: CLE peptide with E2K, V3H, I10T and S11G substitutions relative to TDIF (HKHPSGPNPTGN) [reference compound]
[1]
  Kd (dissociation constant): No binding
  Binding to TDR in words (relative to wild type peptide): no measurable binding; also recorded: unable to bind TDR

## CLE42: CLE peptide in which the E2 of TDIF has been replaced with glycine (HGVPSGPNPISN) [reference compound]
[1]
  Binding to TDR in words (relative to wild type peptide): does not influence the binding significantly

## TDIF-S11A: TDIF mutant peptide, S11A substitution (HEVPSGPNPIAN; not fully specified (residues 4, 7))
[1]
  Binding to TDR in words (relative to wild type peptide): barely affects the binding affinity

## TDIF-P9A: TDIF mutant peptide, P9A (HEV[Hyp]SG[Hyp]NAISN)
[2]
  Effect on inhibition of tracheary element differentiation, in words: significant in effect

## CC[C@H](C)[C@H](NC(=O)[C@@H]1CCCN1C(=O)[C@H](CC(N)=O)NC(=O)[C@@H]1C[C@@H](O)CN1C(=O)CNC(=O)[C@H](CO)NC(=O)[C@@H]1C[C@@H](O)CN1C(=O)[C@@H](NC(=O)[C@H](CCC(=O)O)NC(=O)[C@@H](N)Cc1c[nH]cn1)C(C)C)C(=O)N[C@@H](CO)C(=O)N[C@@H](C)C(=O)O [TDIF-N12A] (H-HEV[Hyp]SG[Hyp]NPISA-OH)
[1]
  Kd: 4.69 ± 0.47 µM

## CC[C@H](C)[C@H](NC(=O)[C@@H]1CCCN1C(=O)[C@H](CC(N)=O)NC(=O)[C@@H]1C[C@@H](O)CN1C(=O)CNC(=O)[C@H](CO)NC(=O)[C@@H]1C[C@@H](O)CN1C(=O)[C@@H](NC(=O)[C@H](CCC(=O)O)NC(=O)[C@@H](N)Cc1c[nH]cn1)C(C)C)C(=O)N[C@@H](CO)C(=O)N[C@@H](CC(N)=O)C(=O)O [TDIF, Tracheary Element Differentiation Inhibitory Factor] (H-HEV[Hyp]SG[Hyp]NPISN-OH)
[3]
  Kd: no measurable binding
[4]
  Kd: no measurable binding

## CC(C)[C@H](NC(=O)[C@H](CCC(=O)O)NC(=O)[C@@H](N)Cc1c[nH]cn1)C(=O)N1C[C@H](O)C[C@H]1C(=O)N[C@@H](CO)C(=O)NCC(=O)N1C[C@H](O)C[C@H]1C(=O)N[C@@H](C)C(=O)N1CCC[C@H]1C(=O)N[C@@H](C)C(=O)N[C@@H](CO)C(=O)N[C@@H](C)C(=O)O [TDIF-N8A/I10A/N12A] (H-HEV[Hyp]SG[Hyp]APASA-OH)
[1]
  Kd: 11.1 ± 1.84 µM

## TDIF-H1A/E2A/V3A/N8A/I10A/N12A: TDIF mutant peptide, both anchoring sites mutated (AAAPSGPAPASA; not fully specified (residues 4, 7))
[1]
  Kd (dissociation constant): No binding
  Binding to TDR in words (relative to wild type peptide): no binding

B1: CLE9 peptide (peptide)
chain: RLVPSGPNPLHN
[5]
  Kd: 10.2 µM

B2: TDIF-N8A/I10A/N12A peptide (peptide)
peptide: HEV[Hyp]SG[Hyp]APASA
notes: TDIF (CLE41/CLE44 peptide) of A. thaliana; numbers count on: the 12-residue peptide
[6]
  Kd: ~11 µM
  fold lower affinity than wild-type TDIF: ~110 fold

B3: CLE9 peptide R1H (peptide)
chain: HLVPSGPNPLHN
[7]; chain shown with the change
  ratio to parent: -46.6
[7]; chain shown with the change, parent: […]
  other: fold change in Kd against wild type TDIF: 2.1
[7]; chain shown with the change;, parent: 10215 ± 6281 nM
  Kd: 0.219 µM

B4: CLE42 peptide (peptide)
peptide: HGVPSGPNPISN
notes: CLE42 peptide of A. thaliana; numbers count on: the 12-residue peptide
[6]
  binding result: binds

B5: TDIF-H1R peptide (peptide)
peptide: REV[Hyp]SG[Hyp]NPISN
notes: TDIF (CLE41/CLE44 peptide) of A. thaliana; numbers count on: the 12-residue peptide; also called printed once as 'R1H substitution of TDIF'; source: synthetic peptide
[6]
  fold lower affinity than wild-type TDIF: 3.2 fold

B6: TDIF peptide with alanine substitution of Hyp4 (peptide)
peptide: HEVASG[Hyp]NPISN
notes: TDIF (CLE41/CLE44 peptide) of A. thaliana; numbers count on: the 12-residue peptide; also called Hyp4 alanine mutant
[6]
  binding result: binds

B7: TDIF peptide with alanine substitution of Hyp7 (peptide)
peptide: HEV[Hyp]SGANPISN
notes: TDIF (CLE41/CLE44 peptide) of A. thaliana; numbers count on: the 12-residue peptide; also called Hyp7 alanine mutant
[6]
  binding result: binds

B8: TDIF E2R mutant peptide (peptide)
peptide: HRV[Hyp]SG[Hyp]NPISN
notes: as for B2
[6]
  fold increase in Kd over wild-type TDIF: 5.3 fold

B9: TDIF peptide with alanine substitution of S5 (peptide)
peptide: HEV[Hyp]AG[Hyp]NPISN
notes: TDIF (CLE41/CLE44 peptide) of A. thaliana; numbers count on: the 12-residue peptide; also called S5 alanine mutant
[6]
  binding result: binds

B10: G6T TDIF mutant peptide (peptide)
peptide: HEV[Hyp]ST[Hyp]NPISN
notes: as for B2
[6]
  fold lower affinity than wild-type TDIF: 20.1 fold

B11: G6A TDIF mutant peptide (peptide)
peptide: HEV[Hyp]SA[Hyp]NPISN
notes: as for B2
[6]
  fold lower affinity than wild-type TDIF: 13.9 fold

B12: TDIF S11A mutant peptide (peptide)
peptide: HEV[Hyp]SG[Hyp]NPIAN
notes: as for B2
[6]
  binding result: binds

B13: TDIF V3A mutant peptide (peptide)
peptide: HEA[Hyp]SG[Hyp]NPISN
notes: as for B2
[6]
  fold lower affinity than wild-type TDIF: 11.1 fold

B14: TDIF H1A mutant peptide (peptide)
peptide: AEV[Hyp]SG[Hyp]NPISN
notes: as for B2
[6]
  fold lower affinity than wild-type TDIF: ~115 fold

B15: TDIF-P9A mutant peptide (peptide)
peptide: HEV[Hyp]SG[Hyp]NAISN
notes: as for B2
[6]
  fold decrease in binding against wild-type TDIF: 2 fold

B16: TDIF E2A mutant peptide (peptide)
peptide: HAV[Hyp]SG[Hyp]NPISN
notes: as for B2
[6]
  fold increase in Kd over wild-type TDIF: 3.2 fold

From article PMC5383425, “Differential CLE peptide perception by plant receptors implicated from structural and functional analyses of TDIF-TDR interactions” (PLoS ONE, 2017)
